Results taken from patent US20170342144A1 (Sanofi, published 2017).

T1: human TGFβ3 (human, UniProt P10600 301-412)
T1 sequence: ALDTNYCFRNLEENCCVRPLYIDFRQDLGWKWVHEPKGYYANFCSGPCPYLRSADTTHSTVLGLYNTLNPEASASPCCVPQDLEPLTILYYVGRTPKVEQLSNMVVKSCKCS

T2: human TGFβ2 (human, UniProt P61812 303-414)
T2 construct: also called TGFβ2 homodimer
T2 sequence: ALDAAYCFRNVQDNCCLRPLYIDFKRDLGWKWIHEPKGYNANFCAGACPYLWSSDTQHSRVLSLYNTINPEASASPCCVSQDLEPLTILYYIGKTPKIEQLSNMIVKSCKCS


Legend:
human TGFβ3 [1] = target: T1, human TGFβ3; assay: Biacore, 3.33-90 nM, 1:1 global fit, vs wt GC1008
Protocol: (§1) In FIG. 6C, seventeen mutants were selected and scaled up to produce sufficient amount of purified protein for KD (equilibrium constant=kd/ka) analysis by Biacore. Multiple concentrations (90, 30, 10 and 3.33 nM) were used in duplicate on the 150 RU level TGFβ1, 2, and 3 immobilized surfaces. KD was calculated using global curve fitting analysis for a 1-to-1 Langmuir binding model. The experimental data from all four concentrations were used for calculation except for I54N and I54R mutants, where only the top 2 concentrations were used. The fold changes in KD were compared to the fold changes in kd (off rate) presented in FIG. 6B, and a heat map was generated for visualization. Similar fold changes were observed from the two data sets, confirming the validity of using kd as a parameter for screening of 155 single mutants as shown in FIG. 6B.

human TGFβ2 [2] = target: T2, human TGFβ2; assay: Biacore, 3.33-90 nM, 1:1 global fit, vs wt GC1008
Protocol: as §1

human TGFβ1 [3] = target: T3, human TGFβ1 (human, UniProt P01137 279-390); assay: Biacore, 3.33-90 nM, 1:1 global fit, vs wt GC1008
T3 construct: also called TGFβ1 homodimer
Protocol: as §1

human TGFβ3 [4] = target: T1, human TGFβ3; assay: Biacore off-rate vs wt GC1008
Text: (§2) Plasmids encoding either the GC1008 heavy chain or light chain were used as a template in PCR-based mutagenesis reactions. Mutations to the encoding DNA were made to create 155 single amino acid substitutions of the encoded heavy chain amino acid sequence and one single amino acid substitution of the encoded light chain amino acid sequence. A QuikChange® Lightning Site-Directed Mutagenesis kit (Agilent Technologies, Santa Clara Calif.) was used according to the manufacturer's instructions to create DNA mutations using a set of forward and reverse primers, either designed for a specific amino acid or for all 20 amino acids with a degenerate codon (NNK). After sequencing confirmation, identified mutant DNA was paired with a wild-type light or heavy chain DNA for transfection into an Expi293F™ host cell suspension (Life Techonologies Corp., Grand Island, N.Y.). At 4 days post-transfection, conditioned media (1 mL) was harvested and purified using a 1 mL Protein A PhyTip® column (PhyNexus, Inc., San Jose, Calif.) and a PureSpeed™ 12-channel pipette (Rainin Instrument LLC, Oakland, Calif.). Purified variant antibody samples were analyzed in duplicate on a Biacore® 3000 (GE Healthcare) at 50 nM concentrations, using the 100 RU level TGFβ1, 2, and 3 immobilized surfaces. The off-rate (kd) of the variants was divided by the kd of the wild-type control to obtain the fold change in the kd. […] A heat map was generated to visualize the results. Variants that completely lost affinity for TGFβ were shown in red without numbers.

human TGFβ2 [5] = target: T2, human TGFβ2; assay: Biacore off-rate vs wt GC1008
Text: as §2

human TGFβ1 [6] = target: T3, human TGFβ1; assay: Biacore off-rate vs wt GC1008
Text: as §2

human TGFβ3 [7] = target: T1, human TGFβ3; assay: Biacore off-rate vs wt GC1008, 50 nM
How it was run: (§3)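 Surface plasmon resonance on a Biacore 3000 measured how fast purified antibody variants dissociated from TGFβ isoforms immobilized at about 100 RU. Variants carried single heavy- or light-chain substitutions and were produced by transient Expi293F transfection with Protein A cleanup. Samples at 50 nM were tested in duplicate, and each variant kd was divided by the wild-type control kd to give fold change.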

human TGFβ2 [8] = target: T2, human TGFβ2; assay: Biacore off-rate vs wt GC1008, 50 nM
How it was run: as §3

human TGFβ1 [9] = target: T3, human TGFβ1; assay: Biacore off-rate vs wt GC1008, 50 nM
How it was run: as §3

T3 sequence (P01137 279-390 limits assumed): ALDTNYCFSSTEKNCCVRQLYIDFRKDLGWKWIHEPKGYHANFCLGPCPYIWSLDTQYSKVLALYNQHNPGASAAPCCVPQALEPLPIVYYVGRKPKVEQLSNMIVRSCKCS

KD mutant/KD wt (human TGFβ3 [1]) | KD mutant/KD wt (human TGFβ2 [2]) | KD mutant/KD wt (human TGFβ1 [3]) | kd mutant/kd wt (human TGFβ3 [4]) | kd mutant/kd wt (human TGFβ2 [5]) | kd mutant/kd wt (human TGFβ1 [6]) | kd var/kd wt (human TGFβ3 [7]) | kd var/kd wt (human TGFβ2 [8]) | kd var/kd wt (human TGFβ1 [9]) | Binder
0.6 | 0.6 | 1 | 0.7 | 0.8 | 1 | 0.7 | 0.8 | 1 | D56R (antibody, V domains shown, GC1008 IgG4 variant) VH: QVQLVQSGAEVKKPGSSVKVSCKASGYTFSSNVISWVRQAPGQGLEWMGGVIPIVRIANYAQRFKGRVTITADESTSTTYMELSSLRSEDTAVYYCASTLGLVLDAMDYWGQGTLVTVSS VL: ETVLTQSPGTLSLSPGERATLSCRASQSLGSSYLAWYQQKPGQAPRLLIYGASSRAPGIPDRFSGSGSGTDFTLTISRLEPEDFAVYYCQQYADSPITFGQGTRLEIK
3.2 | 2.1 | 2.1 | 1.7 | 1.3 | 2.1 | 1.7 | 1.3 | 2.1 | I54T (antibody, V domains shown, GC1008 IgG4 variant) VH: QVQLVQSGAEVKKPGSSVKVSCKASGYTFSSNVISWVRQAPGQGLEWMGGVIPTVDIANYAQRFKGRVTITADESTSTTYMELSSLRSEDTAVYYCASTLGLVLDAMDYWGQGTLVTVSS VL: ETVLTQSPGTLSLSPGERATLSCRASQSLGSSYLAWYQQKPGQAPRLLIYGASSRAPGIPDRFSGSGSGTDFTLTISRLEPEDFAVYYCQQYADSPITFGQGTRLEIK
3.1 | 1.4 | 1.7 | 1.7 | 1.2 | 2 | 1.7 | 1.2 | 2 | I54W (antibody, V domains shown, GC1008 IgG4 variant) VH: QVQLVQSGAEVKKPGSSVKVSCKASGYTFSSNVISWVRQAPGQGLEWMGGVIPWVDIANYAQRFKGRVTITADESTSTTYMELSSLRSEDTAVYYCASTLGLVLDAMDYWGQGTLVTVSS VL: ETVLTQSPGTLSLSPGERATLSCRASQSLGSSYLAWYQQKPGQAPRLLIYGASSRAPGIPDRFSGSGSGTDFTLTISRLEPEDFAVYYCQQYADSPITFGQGTRLEIK
0.3 | 0.7 | 0.9 | 0.1 | 0.6 | 0.8 | 0.1 | 0.6 | 0.8 | E74L (antibody, V domains shown, GC1008 IgG4 variant) VH: QVQLVQSGAEVKKPGSSVKVSCKASGYTFSSNVISWVRQAPGQGLEWMGGVIPIVDIANYAQRFKGRVTITADLSTSTTYMELSSLRSEDTAVYYCASTLGLVLDAMDYWGQGTLVTVSS VL: ETVLTQSPGTLSLSPGERATLSCRASQSLGSSYLAWYQQKPGQAPRLLIYGASSRAPGIPDRFSGSGSGTDFTLTISRLEPEDFAVYYCQQYADSPITFGQGTRLEIK
1 | 0.8 | 1 | 0.7 | 0.8 | 0.6 | 0.7 | 0.8 | 0.6 | N32E (antibody, V domains shown, GC1008 IgG4 variant) VH: QVQLVQSGAEVKKPGSSVKVSCKASGYTFSSEVISWVRQAPGQGLEWMGGVIPIVDIANYAQRFKGRVTITADESTSTTYMELSSLRSEDTAVYYCASTLGLVLDAMDYWGQGTLVTVSS VL: ETVLTQSPGTLSLSPGERATLSCRASQSLGSSYLAWYQQKPGQAPRLLIYGASSRAPGIPDRFSGSGSGTDFTLTISRLEPEDFAVYYCQQYADSPITFGQGTRLEIK

Continued, binder first:

Binder | KD mutant/KD wt (human TGFβ3 [1]) | KD mutant/KD wt (human TGFβ2 [2]) | KD mutant/KD wt (human TGFβ1 [3]) | kd mutant/kd wt (human TGFβ3 [4]) | kd mutant/kd wt (human TGFβ2 [5]) | kd mutant/kd wt (human TGFβ1 [6]) | kd var/kd wt (human TGFβ3 [7]) | kd var/kd wt (human TGFβ2 [8]) | kd var/kd wt (human TGFβ1 [9])
I54F (antibody, V domains shown, GC1008 IgG4 variant) VH: QVQLVQSGAEVKKPGSSVKVSCKASGYTFSSNVISWVRQAPGQGLEWMGGVIPFVDIANYAQRFKGRVTITADESTSTTYMELSSLRSEDTAVYYCASTLGLVLDAMDYWGQGTLVTVSS VL: ETVLTQSPGTLSLSPGERATLSCRASQSLGSSYLAWYQQKPGQAPRLLIYGASSRAPGIPDRFSGSGSGTDFTLTISRLEPEDFAVYYCQQYADSPITFGQGTRLEIK | 1.2 | 0.6 | 1.3 | 1.2 | 0.7 | 1.3 | 1.2 | 0.7 | 1.3
E74R (antibody, V domains shown, GC1008 IgG4 variant) VH: QVQLVQSGAEVKKPGSSVKVSCKASGYTFSSNVISWVRQAPGQGLEWMGGVIPIVDIANYAQRFKGRVTITADRSTSTTYMELSSLRSEDTAVYYCASTLGLVLDAMDYWGQGTLVTVSS VL: ETVLTQSPGTLSLSPGERATLSCRASQSLGSSYLAWYQQKPGQAPRLLIYGASSRAPGIPDRFSGSGSGTDFTLTISRLEPEDFAVYYCQQYADSPITFGQGTRLEIK | 0.8 | 1.3 | 2.1 | 0.7 | 1 | 2 | 0.7 | 1 | 2
E74W (antibody, V domains shown, GC1008 IgG4 variant) VH: QVQLVQSGAEVKKPGSSVKVSCKASGYTFSSNVISWVRQAPGQGLEWMGGVIPIVDIANYAQRFKGRVTITADWSTSTTYMELSSLRSEDTAVYYCASTLGLVLDAMDYWGQGTLVTVSS VL: ETVLTQSPGTLSLSPGERATLSCRASQSLGSSYLAWYQQKPGQAPRLLIYGASSRAPGIPDRFSGSGSGTDFTLTISRLEPEDFAVYYCQQYADSPITFGQGTRLEIK | 0.6 | 0.5 | 0.9 | 0.3 | 0.3 | 0.8 | 0.3 | 0.3 | 0.8
N32K (antibody, V domains shown, GC1008 IgG4 variant) VH: QVQLVQSGAEVKKPGSSVKVSCKASGYTFSSKVISWVRQAPGQGLEWMGGVIPIVDIANYAQRFKGRVTITADESTSTTYMELSSLRSEDTAVYYCASTLGLVLDAMDYWGQGTLVTVSS VL: ETVLTQSPGTLSLSPGERATLSCRASQSLGSSYLAWYQQKPGQAPRLLIYGASSRAPGIPDRFSGSGSGTDFTLTISRLEPEDFAVYYCQQYADSPITFGQGTRLEIK | 3.7 | 2.6 | 4 | 1.8 | 1.4 | 2.7 | 1.8 | 1.4 | 2.7
I52L (antibody, V domains shown, GC1008 IgG4 variant) VH: QVQLVQSGAEVKKPGSSVKVSCKASGYTFSSNVISWVRQAPGQGLEWMGGVLPIVDIANYAQRFKGRVTITADESTSTTYMELSSLRSEDTAVYYCASTLGLVLDAMDYWGQGTLVTVSS VL: ETVLTQSPGTLSLSPGERATLSCRASQSLGSSYLAWYQQKPGQAPRLLIYGASSRAPGIPDRFSGSGSGTDFTLTISRLEPEDFAVYYCQQYADSPITFGQGTRLEIK | 2.6 | 2.4 | 4.1 | 1.6 | 1.4 | 3 | 1.6 | 1.4 | 3
